Results from patent publication US20240401063, “Aptamer for DKK1 and Use Thereof” (APTACURE THERAPEUTICS LIMITED, published 2024).

Target: T1, DKK1 (Dickkopf-1), full-length (Homo sapiens, UniProt O94907 SEQ:32-266)
T1 sequence: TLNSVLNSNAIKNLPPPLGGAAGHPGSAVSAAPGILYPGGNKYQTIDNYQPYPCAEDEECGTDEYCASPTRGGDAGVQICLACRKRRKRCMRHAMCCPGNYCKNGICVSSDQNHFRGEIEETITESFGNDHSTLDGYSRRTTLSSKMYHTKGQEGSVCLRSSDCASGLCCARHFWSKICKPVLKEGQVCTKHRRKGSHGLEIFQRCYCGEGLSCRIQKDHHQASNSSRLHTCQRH
Test: BLI
Conditions: tags: His6
Procedure: The specificity against DKK-1 was determined with 1 μM of each aptamer/RS for 19 potential sequences with the highest occurrence rate in the 30th round by ELONA. […] Next, the binding affinity against DKK1 was determined for candidate aptamers by BLL. DKK1 protein was applied at gradient concentrations of 0 nM, 3.125 nM, 6.25 nM, 12.5 nM, 25 nM, 50 nM, 100 nM, and 200 nM.

Binder: TATGGTTTCCCTACATGTGTTCAGTGTTTGTGTGT (ssDNA) [D30-13]
- Kd: 1.67 nM

Binder: ATGTAAATCGATTCCTCTGGCCGCATCGCGCTTTA (ssDNA) [D30-16]
- Kd: 1.9 nM

Binder: TCCTCTTCCTTTGGCTAGGTTGGTTAGGTTGGTGC (ssDNA) [D30-10]
- Kd: 1.97 nM

Binder: CTGTTCTAACGTGGTTGACCCCCCTTTGCTTTGAC (ssDNA) [D30-9]
- Kd: 2.42 nM

Binder: ATGCCCCTCCTCTGTTGAACTGTTTACCCCTTTGA (ssDNA) [D30-14]
- Kd: 2.54 nM

Binder: CTTCTTGTCCCTCGATGTGTTCAGTGTTTGTGTGT (ssDNA) [D30-3]
- Kd: 2.64 nM

Binder: CATTGTCTCAGCGCATGTGTTCAGTTCTTGTGTGT (ssDNA) [D30-2]
- Kd: 2.89 nM

Binder: AATTTCGATAGTCCATGTGTTCAGTGCCTGTGTGT (ssDNA) [D30-15]
- Kd: 2.92 nM

Binder: TGCATCTTCCTTCTTCGATTCTATGCTCGGCCGCG (ssDNA) [D30-8]
- Kd: 3.19 nM

Binder: ATGTCCATTTGCGAGTAGGTGTTTGAGTGAGGTGA (ssDNA) [D30-1]
- Kd: 5.34 nM

Binder: TGTAGATAGAGGGGTTGGTGTGGTTGGCGCTATCC (ssDNA) [D30-7]
- Kd: 5.5 nM

Binder: TCGTGCTTGATTCCATGCTTGGCCGCCTTCTCGTG (ssDNA) [D30-12]
- Kd: 5.99 nM

Binder: CAGTCTTAGTGCTCATGTGTTCAGTGTTTGTGTGT (ssDNA) [D30-17]
- Kd: 20.1 nM

Binder: TACCTTCTGCTCGATGTGTTCAGTGTGTTGTGTGT (ssDNA) [D30-19]
- Kd: 20.1 nM

Binder: TCTGCTTTCACGTACTAGGTTGGTTAGGTTGGTGT (ssDNA) [D30-18]
- Kd: 20.8 nM

Binder: TGCTGAACTTTACGTGATTCTAGTCGCTGACCGCG (ssDNA) [D30-4]
- Kd: 23 nM
